No end group written: not given here.
Assays:
14C-HIgG (human) [1] = assay: secondary screening, batch, HIgG competitive (spiked in MEM)
[2] = target: 14C-Fc fragment of HIgG (human); assay: secondary screening, batch, Fc fragment non-competitive (PBS)
14C-HIgG (human) [3] = assay: secondary screening, batch, HIgG non-competitive (PBS), Micro-BCA
[4] = target: 14C-Fc fragment of HIgG (human); assay: secondary screening, batch, Fc fragment competitive (spiked in MEM)
Human IgG (HIgG) (human) [5] = assay: batch adsorption isotherm, PBS pH 7.4, peptide resin 0.1 meq/g, direct Langmuir fit
Human IgG (HIgG) (human) [6] = assay: batch adsorption isotherm, PBS pH 7.4, peptide resin 0.1 meq/g, double reciprocal curve
14C-HIgG (human) [7] = assay: second round of secondary screening, batch, competitive (MEM), 14C counting
14C-HIgG (human) [8] = assay: second round of secondary screening, batch, non-competitive (PBS)
Human IgG (HIgG) (human) [9] = assay: ratio of ligand to protein at maximum capacity, Ac-HWRGWV resin at 0.080 mmol/g
Human IgG (HIgG) (human) [10] = assay: batch adsorption isotherm, PBS pH 7.4, Ac-HWRGWV resin at 0.080 mmol/g, Langmuir fit
Human IgG (HIgG) (human) [11] = assay: ratio of ligand to protein at maximum capacity, HWRGWV resin at 0.10 mmol/g
Human IgG (HIgG) (human) [12] = assay: ratio of ligand to protein at maximum capacity, HWRGWV resin at 0.22 mmol/g
Human IgG (HIgG) (human) [13] = assay: ratio of ligand to protein at maximum capacity, HWRGWV resin at 0.55 mmol/g
Human IgG (HIgG) (human) [14] = assay: ratio of ligand to protein at maximum capacity, HWRGWV resin at 0.022 mmol/g
Human IgG (HIgG) (human) [15] = assay: ratio of ligand to protein at maximum capacity, HWRGWV resin at 0.040 mmol/g
Human IgG (HIgG) (human) [16] = assay: ratio of ligand to protein at maximum capacity, HWRGWV resin at 0.080 mmol/g
Human IgG (HIgG) (human) [17] = assay: batch adsorption isotherm, PBS pH 7.4, HWRGWV resin at 0.10 mmol/g, Langmuir fit
Human IgG (HIgG) (human) [18] = assay: batch adsorption isotherm, PBS pH 7.4, HWRGWV resin at 0.22 mmol/g, Langmuir fit
Human IgG (HIgG) (human) [19] = assay: batch adsorption isotherm, PBS pH 7.4, HWRGWV resin at 0.55 mmol/g, Langmuir fit
Human IgG (HIgG) (human) [20] = assay: batch adsorption isotherm, PBS pH 7.4, HWRGWV resin at 0.022 mmol/g, Langmuir fit
Human IgG (HIgG) (human) [21] = assay: batch adsorption isotherm, PBS pH 7.4, HWRGWV resin at 0.040 mmol/g, Langmuir fit
Human IgG (HIgG) (human) [22] = assay: batch adsorption isotherm, PBS pH 7.4, HWRGWV resin at 0.080 mmol/g, Langmuir fit

Molecule HRPKIF (peptide) has a Bound % (14C-HIgG (human) [1]) of 4.51%, a Bound % [2] of 21.5% and a Bound % (14C-HIgG (human) [3]) of 11.2%. The Bound % [4] was 24.5%.

WHWRKRA-{Toyopearl AF‑Amino‑650 resin} showed a Bound % (14C-HIgG (human) [1]) of 10.9%, a Bound % [2] of 88.2% and a Bound % (14C-HIgG (human) [3]) of 66.2%. The Bound % [4] was 16.5%, the Kd (Human IgG (HIgG) (human) [5]) was 1.39 µM and the qm (maximum capacity) (Human IgG (HIgG) (human) [5]) was 62.4 mg/g. It also gave a Kd (Human IgG (HIgG) (human) [6]) of 2.47 µM and a qm (maximum capacity) (Human IgG (HIgG) (human) [6]) of 81.9 mg/g.

HEILYWA-{Toyopearl AF‑Amino‑650 resin} was tested, and the Bound % (14C-HIgG (human) [1]) was 5.5%, the Bound % [2] was 18% and the Bound % (14C-HIgG (human) [3]) was 9.16%. For the same molecule, the Bound % [4] was 3.2%.

HYIDAKA-{Toyopearl AF‑Amino‑650 resin} gave a Bound (14C-HIgG (human) [7]) of 8.64% and an Unbound (14C-HIgG (human) [7]) of 91.4%.

For KRGFYYA-{Toyopearl AF‑Amino‑650 resin}, the Bound (14C-HIgG (human) [7]) was 17.3% and the Unbound (14C-HIgG (human) [7]) was 82.7%.

HVWQLKA-{Toyopearl AF‑Amino‑650 resin} showed a Bound (14C-HIgG (human) [7]) of 15.1% and an Unbound (14C-HIgG (human) [7]) of 85%.

With YYWLHHA-{Toyopearl AF‑Amino‑650 resin} the Bound % (14C-HIgG (human) [1]) was 41.9%, the Bound % [2] was 40.4% and the Bound % (14C-HIgG (human) [3]) was 91.3%. The Bound % [4] was 8.85%, the Kd (Human IgG (HIgG) (human) [5]) was 0.297 µM and the qm (maximum capacity) (Human IgG (HIgG) (human) [5]) was 113 mg/g. It also gave a Kd (Human IgG (HIgG) (human) [6]) of 0.215 µM and a qm (maximum capacity) (Human IgG (HIgG) (human) [6]) of 95.1 mg/g.

HDVFHTA-{Toyopearl AF‑Amino‑650 resin} gave a Bound (14C-HIgG (human) [7]) of 8.55% and an Unbound (14C-HIgG (human) [7]) of 91.5%.

Work on HFDKGFA-{Toyopearl AF‑Amino‑650 resin} yielded a Bound % (14C-HIgG (human) [1]) of 6.01%, a Bound % [2] of 12.9% and a Bound % (14C-HIgG (human) [3]) of 10.7%. It also gave a Bound % [4] of 4.28%.

For HVHYYWA-{Toyopearl AF‑Amino‑650 resin}, the Bound (14C-HIgG (human) [8]) was 55.5%, the Unbound (14C-HIgG (human) [8]) was 44.5% and the Bound (14C-HIgG (human) [7]) was 43.3%. For the same molecule, the Unbound (14C-HIgG (human) [7]) was 56.7%, the Kd (Human IgG (HIgG) (human) [5]) was 20.3 µM and the qm (maximum capacity) (Human IgG (HIgG) (human) [5]) was 129 mg/g.

Molecule HYGLGWA-{Toyopearl AF‑Amino‑650 resin} has a Bound % (14C-HIgG (human) [1]) of 14.5%, a Bound % [2] of 19.8% and a Bound % (14C-HIgG (human) [3]) of 17.9%. It also gave a Bound % [4] of 4.91%.

For Ac-HWRGWVA-{Toyopearl AF‑Amino‑650 resin} [Ac-HWRGWV], the peptide/protein, mol/mol (Human IgG (HIgG) (human) [9]) was 92 mol/mol, the Kd (Human IgG (HIgG) (human) [10]) was 3.8 µM and the qm (maximum capacity) (Human IgG (HIgG) (human) [10]) was 131 mg/g.

With HIQLDGA-{Toyopearl AF‑Amino‑650 resin} the Bound (14C-HIgG (human) [7]) was 10% and the Unbound (14C-HIgG (human) [7]) was 90%.

HWIDPLA-{Toyopearl AF‑Amino‑650 resin} gave a Bound (14C-HIgG (human) [8]) of 9.03%, an Unbound (14C-HIgG (human) [8]) of 91% and a Bound (14C-HIgG (human) [7]) of 19.9%. It also gave an Unbound (14C-HIgG (human) [7]) of 80.1%.

Molecule HANGFLA-{Toyopearl AF‑Amino‑650 resin} has a Bound % (14C-HIgG (human) [1]) of 5.58%, a Bound % [2] of 10.2% and a Bound % (14C-HIgG (human) [3]) of 10.5%. It also gave a Bound % [4] of 25.6%.

HWRGWVA-{Toyopearl AF‑Amino‑650 resin} showed a Bound % (14C-HIgG (human) [1]) of 24.4%, a Bound % [2] of 82.5% and a Bound % (14C-HIgG (human) [3]) of 62.2%. The Bound % [4] was 8.13%, the peptide/protein, mol/mol (Human IgG (HIgG) (human) [11]) was 112 mol/mol and the peptide/protein, mol/mol (Human IgG (HIgG) (human) [12]) was 241 mol/mol. It also gave a peptide/protein, mol/mol (Human IgG (HIgG) (human) [13]) of 600 mol/mol, a peptide/protein, mol/mol (Human IgG (HIgG) (human) [14]) of 21 mol/mol and a peptide/protein, mol/mol (Human IgG (HIgG) (human) [15]) of 41 mol/mol. The peptide/protein, mol/mol (Human IgG (HIgG) (human) [16]) was 91 mol/mol, the Kd (Human IgG (HIgG) (human) [17]) was 10.4 µM and the qm (maximum capacity) (Human IgG (HIgG) (human) [17]) was 134 mg/g. For the same molecule, the Kd (Human IgG (HIgG) (human) [18]) was 2.58 µM, the qm (maximum capacity) (Human IgG (HIgG) (human) [18]) was 137 mg/g and the Kd (Human IgG (HIgG) (human) [19]) was 0.947 µM. For the same molecule, the qm (maximum capacity) (Human IgG (HIgG) (human) [19]) was 138 mg/g, the Kd (Human IgG (HIgG) (human) [20]) was 30 µM and the qm (maximum capacity) (Human IgG (HIgG) (human) [20]) was 158 mg/g. The Kd (Human IgG (HIgG) (human) [21]) was 20.3 µM, the qm (maximum capacity) (Human IgG (HIgG) (human) [21]) was 148 mg/g and the Kd (Human IgG (HIgG) (human) [22]) was 7.25 µM. The qm (maximum capacity) (Human IgG (HIgG) (human) [22]) was 132 mg/g, the Kd (Human IgG (HIgG) (human) [5]) was 1.33 µM and the qm (maximum capacity) (Human IgG (HIgG) (human) [5]) was 50 mg/g. For the same molecule, the Kd (Human IgG (HIgG) (human) [6]) was 2.8 µM and the qm (maximum capacity) (Human IgG (HIgG) (human) [6]) was 54.8 mg/g.

HWGPTKA-{Toyopearl AF‑Amino‑650 resin} gave a Bound (14C-HIgG (human) [8]) of 14.4%, an Unbound (14C-HIgG (human) [8]) of 85.6% and a Bound (14C-HIgG (human) [7]) of 19.9%. For the same molecule, the Unbound (14C-HIgG (human) [7]) was 80.1%.

Work on HYFKFDA-{Toyopearl AF‑Amino‑650 resin} yielded a Bound (14C-HIgG (human) [8]) of 69.3%, an Unbound (14C-HIgG (human) [8]) of 30.7% and a Bound (14C-HIgG (human) [7]) of 43.3%. It also gave an Unbound (14C-HIgG (human) [7]) of 56.7%, a Kd (Human IgG (HIgG) (human) [5]) of 11.4 µM and a qm (maximum capacity) (Human IgG (HIgG) (human) [5]) of 127 mg/g.

Molecule KLQWVHA-{Toyopearl AF‑Amino‑650 resin} has a Bound (14C-HIgG (human) [7]) of 12.2% and an Unbound (14C-HIgG (human) [7]) of 87.8%.

HPWYVTA-{Toyopearl AF‑Amino‑650 resin} gave a Bound (14C-HIgG (human) [7]) of 27% and an Unbound (14C-HIgG (human) [7]) of 73%.

Molecule HLKWYAA-{Toyopearl AF‑Amino‑650 resin} has a Bound (14C-HIgG (human) [7]) of 23.5% and an Unbound (14C-HIgG (human) [7]) of 76.5%.

With HIWA-{Toyopearl AF‑Amino‑650 resin} the Bound (14C-HIgG (human) [8]) was 7.9%, the Unbound (14C-HIgG (human) [8]) was 92.1% and the Bound (14C-HIgG (human) [7]) was 12.9%. For the same molecule, the Unbound (14C-HIgG (human) [7]) was 87.1%.

Molecule KGEA-{Toyopearl AF‑Amino‑650 resin} has a Bound (14C-HIgG (human) [8]) of 6.08%, an Unbound (14C-HIgG (human) [8]) of 93.9% and a Bound (14C-HIgG (human) [7]) of 7.34%. The Unbound (14C-HIgG (human) [7]) was 92.7%.

For HFRRHLA-{Toyopearl AF‑Amino‑650 resin}, the Bound (14C-HIgG (human) [7]) was 40.9%, the Unbound (14C-HIgG (human) [7]) was 59.1% and the Kd (Human IgG (HIgG) (human) [5]) was 26.4 µM. It also gave a qm (maximum capacity) (Human IgG (HIgG) (human) [5]) of 158 mg/g.
